The values below come from patent US20060280645A1, “Method for terminal sterilization of transdermal delivery devices” (priority 2005, published 2006).

The data set can be described thus: Terminal sterilization by e-beam irradiation: BNP purity and degradation products by RP-HPLC. Format: physicochemical. The note with it: best performing system (Example 4). The procedure: FIGS. 14-16 detail the major degradation pathways for BNP coated on microprojections for all conditions treated by e-beam. […] All modes of degradation are reduced for the microprojection members packaged with desiccant and pre-dried retainer rings and purged with argon.
In this example, methionine from JT Baker (Phillipsburg, N.J.) was added to the BNP formulations in the amount of 1% by weight. These coating formulations were then irradiated using either e-beam or gamma radiation at varying temperatures and under varying atmospheric conditions. FIGS. 17-20 show the purity and degradation of the samples following gamma irradiation and FIGS. 21-24 show the purity and degradation of the samples following e-beam irradiation.
Further, systems packaged with pre-dried retainer rings performed better than systems stored with desiccant when terminally sterilized by e-beam. The best performing system retained 95.1% of the BNP purity, representing only approximately a 2% drop from the initial material purity.

BNP: the BNP purity retained worked out at 95.1% and the “drop from the initial material purity” value is around 2%.
